In patent publication US20230242902A1, “A HIGHLY ERROR-PRONE […] R[…] FOR TARGETED CONTINUOUS EVOLUTION IN VIVO” (The Regents of the University of California, priority 2017, published 2023):

B1: Y382A: TP-DNAP1 variant (protein)
chain: MDYKDKALNDLRNVYADFDSLPLDFRQILIKDRATLLQKEDVEKKILERQEDAKKYAEYLKQSEIPERISLPNIKRHKGVSISFEETSEDMVLEPRPFIFDGLNIRCFRRETIFSLKNKILNMVKESSSFKNVSRQSVSFMYFKIFNKGKVIASTKSVNIYEDKIDERLEDLCNNFDDVLKKIIDVTYGYESLFVSETYSYVIFYAKSIYFPQPRCVNNWGNNIPNILTFDSFKLFTANKNNVSCIKQCSRFLWQKDFNTLEEMIEYKNGNICIVTPQLHINDVRDIKSFNDIRLYSESPIKTFSVIDNTITYLFYFKEHLGVIFNITKSRHDRRVTKFSPLSKFSDVKNITVCFDIESYFDPEKESNQVNIPFICCASIIANKVIGNIVDFEGRDCVAQMIEYVVDICGELNISSVELIAHNGGGYDFHYILSSMYNPAAIKNILIRNNSFISFNFAHDGVKFSVKDSYSFLLCSLANASKAFLNEETFKKTDFPHHDLKTADDLYKVYKEWSSVNTEINHVVEKEKLLITSEHIVNFTKNDKSKTLIEWSKDYCRNDVLVLSKVWLEFKNAVEDIFNCELVDQTMTLAGLSYKLFQANMPFDVELRHPNKEDYFNMREALIGGRCISVNGIYKDVLCLDVKSLYPASMAFYDQPYGSFKRVSSRPKDELGIYYVRVTPNRNNKSNFFPIRSHNKITYNNFEESTYIAWYTNVDIDIGLSEGHNIEYIPFDSYGNIGYSWSKKGKIFEKYIKDVLYKLKIKYEKQNNKVKRNVIKIIMNSLWGKFAQKWVNFEYFIKSEDDIDFESEEAYKIWDTDFMLIKKIKESTYSSKPIQNGVFTLSWARYHMKSIWDAGAKEGAECIYSDTDSIFVHKEHFKKNAKFMLNGLKVPIIGSEVGQLELECEFDKLLCAGKKQYMGFYTYFQDGKPCIKEKKRFKGIPSNYIIPELYAHLLSGADKEAKIQFLKFRREWGSVKGYIENKTVKAT
B2: Y382V: TP-DNAP1 variant (protein)
chain: MDYKDKALNDLRNVYADFDSLPLDFRQILIKDRATLLQKEDVEKKILERQEDAKKYAEYLKQSEIPERISLPNIKRHKGVSISFEETSEDMVLEPRPFIFDGLNIRCFRRETIFSLKNKILNMVKESSSFKNVSRQSVSFMYFKIFNKGKVIASTKSVNIYEDKIDERLEDLCNNFDDVLKKIIDVTYGYESLFVSETYSYVIFYAKSIYFPQPRCVNNWGNNIPNILTFDSFKLFTANKNNVSCIKQCSRFLWQKDFNTLEEMIEYKNGNICIVTPQLHINDVRDIKSFNDIRLYSESPIKTFSVIDNTITYLFYFKEHLGVIFNITKSRHDRRVTKFSPLSKFSDVKNITVCFDIESYFDPEKESNQVNIPFICCASIIVNKVIGNIVDFEGRDCVAQMIEYVVDICGELNISSVELIAHNGGGYDFHYILSSMYNPAAIKNILIRNNSFISFNFAHDGVKFSVKDSYSFLLCSLANASKAFLNEETFKKTDFPHHDLKTADDLYKVYKEWSSVNTEINHVVEKEKLLITSEHIVNFTKNDKSKTLIEWSKDYCRNDVLVLSKVWLEFKNAVEDIFNCELVDQTMTLAGLSYKLFQANMPFDVELRHPNKEDYFNMREALIGGRCISVNGIYKDVLCLDVKSLYPASMAFYDQPYGSFKRVSSRPKDELGIYYVRVTPNRNNKSNFFPIRSHNKITYNNFEESTYIAWYTNVDIDIGLSEGHNIEYIPFDSYGNIGYSWSKKGKIFEKYIKDVLYKLKIKYEKQNNKVKRNVIKIIMNSLWGKFAQKWVNFEYFIKSEDDIDFESEEAYKIWDTDFMLIKKIKESTYSSKPIQNGVFTLSWARYHMKSIWDAGAKEGAECIYSDTDSIFVHKEHFKKNAKFMLNGLKVPIIGSEVGQLELECEFDKLLCAGKKQYMGFYTYFQDGKPCIKEKKRFKGIPSNYIIPELYAHLLSGADKEAKIQFLKFRREWGSVKGYIENKTVKAT

Tested on: p1
Test: p1 copy number by p1-encoded mKate2 fluorescence
Format: cell-based, S. cerevisiae
Details: OR-Y24, measured in triplicate
Summary of the method: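 p1 copy number came from mKate2 fluorescence of saturated OR-Y24 cultures (triplicates, regrown from 1:10,000), read by flow cytometry and converted through a linear curve calibrated by qPCR (LEU2 against genomic LEU3). For small-scale tests, OD600-normalized plate-reader fluorescence (588/633 nm) was scaled to a w.t. TP-DNAP1 control.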

Molecule | Mean fold-increase over w.t. (p1 copy number)
B1 | 1.6 fold
B2 | 1.62 fold
